Assays:
[1] = system: ST8SiaIV KO SW2 cells; test: Flow cytometry binding to ST8SiaIV knockout cells; type: cell-based, human
Description: (§1) FIGS. 8A-8C depict binding of polySia-specific mAb to ST8SiaII and ST8SiaIV knockout cell lines. […] Data are the geometric mean fluorescence intensity (MFI), with the values reported as the average of three replicates and the error represented as the standard deviation of the mean. […] In the ST8SiaII KO SW2 cells, 73% of the population (FL1-H-) binds mo735 below the level of the wild-type SW2 cells. […] In the ST8SiaIV KO SW2 cells, 68% of the population (FL1-H-) binds mo735 below the level of the wild-type SW2 cells.
(§2) CRISPR guide RNAs targeting ST8SiaII (crRNA1: […]; SEQ ID NO: 5) and ST8Sia4 (crRNA1: […]; SEQ ID NO: 6) were purchased from Genscript in the pLentiCRISPR v2 vector. Knockout cell lines were generated in SW2 cells using protocols described by Zhang and colleagues (Shalem et al., “Genome-Scale CRISPR-Cas9 Knockout Screening in Human Cells,” Science 343:84-7 (2014), which is hereby incorporated by reference in its entirety). Briefly, after lentiviral transduction, cells were maintained under selection with 1 μg/mL puromycin for at least 14 days prior to analysis by flow cytometry.
(§3) Cancer cells were trypsinized and collected with media, followed by three washes in PBS. […] Cells were washed three times, resuspended in 500 μL of 0.5% BSA in PBS, and analyzed on a BD FACSCalibur flow cytometer using Cell Quest Pro software (BD Biosciences).

[2] = system: ST8SiaII KO SW2 cells; test: Flow cytometry binding to ST8SiaII knockout cells; type: cell-based, human
Description: as §1, §2, §3

[3] = system: polySia in formalin-fixed, paraffin-embedded (FFPE) human tissue sections of SCLC; test: IHC of FFPE tissue sections
Description: FIGS. 6A-6D depict immunostaining of antibody ch735 to polySia-expressing cancer cells. […] Data are the geometric mean fluorescence intensity (MFI), with the values reported as the average of three replicates and the error represented as the standard deviation of the mean. […] Cells were stained with ch735, wheat germ agglutinin (WGA) to stain the cell membrane, and Hoescht to stain nuclei. Scale bars, 10 μm. […] Scale bars, 200 μm.
The avidin-biotin complex (ABC) immunoperoxidase method was performed essentially as previously described (Zhang et al., “Selection of Tumor Antigens as Targets for Immune Attack Using Immunohistochemistry: I. Focus on Gangliosides,” Int. J. Cancer 73:42-9 (1997), which is hereby incorporated by reference in its entirety). Briefly, the sections were quenched with 0.1% H2O2 in PBS for 15 min, blocked with avidin and biotin reagents (Vector, Burlingame, Calif.) for 10 min each, incubated in 10% serum from which the second antibody was raised and incubated with mAb 735 at 1 μg/ml for 1 h. This concentration was selected based on strong reactivity against known positive target cells and little or no background against stroma. The sections were subsequently incubated with biotinylated secondary antibodies for 30 min, and then incubated in ABC reagent per manufacturer's protocols (ABC Kit, Vector Laboratories, PK-6102) for 30 min. […]

[4] = system: cultured neurons; conditions: unconjugated antibody; cited from earlier work
[5] = system: polySia-positive cell line SH-SY5Y; test: Time course of antibody internalization; type: cell-based, human
Protocol: FIGS. 10A-10E depict internalization of ch735 into polySia-positive cancer cells. […] Nuclei were stained by Hoescht (blue). Scale bar, 10 Fluorescence intensity was measured across the dotted line and normalized to the maximum value in each channel. Arrows indicate regions of colocalization. […] Nuclei were stained by Hoescht. Scale bar, 10 Fluorescence intensity was measured across the dotted line and normalized to the maximum value in each channel. Arrows indicate regions of colocalization. The inset show only the ch735 and DNA channels of the boxed region. […] Scale bar, 10 Fluorescence intensity was measured across the dotted white line and normalized to the maximum value in each channel. […]
To calculate percent internalization, pre-chilled cells were incubated with 50 nM ch735 on ice for 1 h and then washed to remove unbound antibodies. […] Cells were fixed in 2% paraformaldehyde for 20 min and then stained with AF488-labeled antibody against human IgG and analyzed by flow cytometry and FlowJo software. Receptor-antibody complex internalization was calculated using the geometric mean as percent fluorescent intensity loss at 37° C. relative to that on ice. For each sample, the geometric mean fluorescence intensity (MFI) of 10,000 cells was measured in triplicate.

B1: mo735: well-known mouse-derived IgG2a monoclonal antibody 735 targeting polysialic acid (antibody, V domains shown)
VH: QIQLQQSGPELVRPGASVKISCKASGYTFTDYYIHWVKQRPGEGLEWIGWIYPGSGNTKYNEKFKGKATLTVDTSSSTAYMQLSSLTSEDSAVYFCARGGKFAMDYWGQGTSVTVSS
VL: DVVMTQTPLSLPVSLGDQASISCRSSQSLVHSNGNTYLYWYLQKPGQSPKPLIYRVSNRFSGVPDRFSGSGSGTDFTLKISRVEAEDLGVYFCFQGTHVPYTFGGGTRLEIK
[1]
  population (FL1-H-) binding below the level of wild-type SW2 cells: 68%
[2]
  population (FL1-H-) binding below the level of wild-type SW2 cells: 73%
[3]; FFPE human SCLC tissue sections
  IHC staining of polySia: strong staining
[3]; adjacent normal tissue, except bronchial epithelial cells and alveolar macrophages
  IHC staining of polySia: little to no staining
[4]
  complement-dependent cytotoxicity (CDC): only limited complement-dependent cytotoxicity (CDC)

B2: ch735: chimeric human IgG1 polySia-specific mAb made by swapping variable regions of mouse mAb 735 (antibody, V domains shown)
VH: QIQLQQSGPELVRPGASVKISCKASGYTFTDYYIHWVKQRPGEGLEWIGWIYPGSGNTKYNEKFKGKATLTVDTSSSTAYMQLSSLTSEDSAVYFCARGGKFAMDYWGQGTSVTVSS
VL: DVVMTQTPLSLPVSLGDQASISCRSSQSLVHSNGNTYLYWYLQKPGQSPKPLIYRVSNRFSGVPDRFSGSGSGTDFTLKISRVEAEDLGVYFCFQGTHVPYTFGGGTRLEIK
[5]; 15 min
  antibody internalized: ~30%
[5]; reached by 30 min
  maximum internalization: 40%

— US20200277405A1, “COMPOSITION FOR ANTIBODY-DRUG CONJUGATE DIRECTED AGAINST TUMOR-CELL ASSOCIATED POLYSIALIC ACID” (Cornell University, priority 2019, published 2020)
